Reference: PMC3052529
“And” between values parts separate entries of the source, which are not always exact repeats. Equal entries are not always repeated. Where two headings read alike, the source gives them in different places.

Key:
[1] = biological target: HCV core169 (first 169 residues of HCV core protein, domains D1+D2) (hepatitis C virus H77 genotype 1a); experiment: cross-linking
[2] = biological target: Flag-core106 (hepatitis C virus (strain not stated)); experiment: AlphaScreen or HTRF
[3] = biological target: Flag-core169 (hepatitis C virus H77 genotype 1a); experiment: AlphaScreen or HTRF
[4] = biological target: Flag-core106 (hepatitis C virus (strain not stated)); experiment: AlphaScreen or HTRF; remark: listed apart in the source
[5] = biological target: HCV core106 (first N-terminal 106 residues of HCV core protein) (hepatitis C virus (strain not stated)); experiment: cross-linking

Row | Substance | stoichiometry N [1] | IC50 [2] | IC50 [3] | IC50 [4] | stoichiometry N [5]
1 | HCV core169 (first 169 residues of HCV core protein, domains D1+D2) (domain or fragment) | 2 and 3 | – | – | – | –
2 | HCV core106 (first N-terminal 106 residues of HCV core protein) (domain or fragment) | – | 220 nM | 870 nM | 344 nM | 2
